# In patent publication US20130231277A1 (published 2013):
# T1: ectodomain of murine βKlotho (F53 to L995 of SEQ ID NO: 218) with a C-terminal FLAG tag (UniProt Q99N32 53-995)
# T1 chain: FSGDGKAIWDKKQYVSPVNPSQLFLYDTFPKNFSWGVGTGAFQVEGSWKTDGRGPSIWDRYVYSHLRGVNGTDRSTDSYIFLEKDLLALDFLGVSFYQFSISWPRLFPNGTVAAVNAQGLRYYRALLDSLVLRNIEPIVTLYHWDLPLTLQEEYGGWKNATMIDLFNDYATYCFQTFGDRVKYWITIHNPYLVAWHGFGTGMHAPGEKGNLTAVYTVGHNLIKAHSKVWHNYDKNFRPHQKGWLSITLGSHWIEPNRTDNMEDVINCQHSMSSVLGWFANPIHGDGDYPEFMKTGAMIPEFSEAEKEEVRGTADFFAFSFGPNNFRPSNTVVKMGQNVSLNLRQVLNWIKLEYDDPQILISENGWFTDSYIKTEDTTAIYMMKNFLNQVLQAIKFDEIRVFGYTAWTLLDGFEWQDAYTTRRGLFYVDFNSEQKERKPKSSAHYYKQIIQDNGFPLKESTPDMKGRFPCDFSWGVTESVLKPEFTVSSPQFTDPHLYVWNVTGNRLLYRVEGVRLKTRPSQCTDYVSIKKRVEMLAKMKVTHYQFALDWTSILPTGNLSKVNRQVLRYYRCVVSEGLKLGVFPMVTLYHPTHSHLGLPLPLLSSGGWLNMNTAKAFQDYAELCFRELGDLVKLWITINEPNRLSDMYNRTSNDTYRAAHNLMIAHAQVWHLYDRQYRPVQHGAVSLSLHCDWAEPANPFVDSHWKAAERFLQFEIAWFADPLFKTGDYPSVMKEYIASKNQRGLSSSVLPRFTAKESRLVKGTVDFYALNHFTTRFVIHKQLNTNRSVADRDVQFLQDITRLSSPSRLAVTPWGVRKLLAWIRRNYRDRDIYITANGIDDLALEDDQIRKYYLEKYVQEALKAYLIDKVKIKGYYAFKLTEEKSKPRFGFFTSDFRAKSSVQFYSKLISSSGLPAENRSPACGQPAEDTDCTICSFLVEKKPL
# B1: ligand-binding domain of human FGFR2c (N149 to E368 of SEQ ID NO: 226) (receptor)
# chain: NNKRAPYWTNTEKMEKRLHAVPAANTVKFRCPAGGNPMPTMRWLKNGKEFKQEHRIGGYKVRNQHWSLIMESVVPSDKGNYTCVVENEYGSINHTYHLDVVERSPHRPILQAGLPANASTVVGGDVEFVCKVYSDAQPHIQWIKHVEKNGSKYGPDGLPYLKVLKAAGVNTTDKEIEVLYIRNVTFEDAGEYTCLAGNSIGISFHSAWLTVLPAPGREKE
# B2: ligand-binding domain of human FGFR1c (D142 to R365 of SEQ ID NO: 221) (receptor)
# chain: DNTKPNRMPVAPYWTSPEKMEKKLHAVPAAKTVKFKCPSSGTPNPTLRWLKNGKEFKPDHRIGGYKVRYATWSIIMDSVVPSDKGNYTCIVENEYGSINHTYQLDVVERSPHRPILQAGLPANKTVALGSNVEFMCKVYSDPQPHIQWLKHIEVNGSKIGPDNLPYVQILKTAGVNTTDKEMEVLHLRNVSFEDAGEYTCLAGNSIGLSHHSAWLTVLEALEER
# Target: T1, ectodomain of murine βKlotho (F53 to …)
# Experiment: SPR
row,Binder,Kd [nM]
1,B1,170
2,B2,124
